According to patent publication US20090053807A1 (Novo Nordisk A/S, priority 1998, published 2009):

Assays:
[1] = target: insulin receptor construct transfected into 32D cells (Homo sapiens, UniProt P06213); experiment: IR autophosphorylation assay in IR transfected 32D cells (ELISA); conditions: MBP fusion peptides, FIG. 30
MCF-7 cells = experiment: MCF-7 cell proliferation assay, agonist format; assay type: cell-based, human; conditions: MCF-7 and MiaPaCa cell proliferation (Tables 27-28)

Row | Molecule | stimulation of autophosphorylation of IR [1] | IGF-1R agonist activity (MCF-7 cells)
1 | H2C-9aa-H2C: MBP fusion, H2C dimer peptide with 9 amino acid linker (protein, left off: large carriers; small tags and cut ends) NNNNLGIEGRISEFIEGRAQPAMAFHENFYDWFVRQVSGGSGGSGGSFHENFYDWFVRQVSAAAGAPVPYPDPLEPRAA | active | –
2 | H2C-3aa-H2C: MBP fusion, H2C dimer peptide (Site 1-Site 1) with 3 amino acid linker (protein, left off: large carriers; small tags and cut ends) NNNNLGIEGRISEFIEGRAQPAMAFHENFYDWFVRQVSGGSFHENFYDWFVRQVSAAAGAPVPYPDPLEPRAA | active | –
3 | RP30-IGF-12-D112: dimer peptide (Site 1-Site 1) (peptide) ADYKDSFYSCLESLVNGGAERSDGQWEGCRGGSGGSGGSGGSCWARPCGDAANFYDWFVQQASKKAAAGAPVPYPDPLEPRPG | – | IGF-1R agonist activity
4 | D112-12-RP30-IGF: dimer peptide (Site 1-Site 1) (peptide) ADYKDCWARPCGDAANFYDWFVQQASKKGGSGGSGGSGGSSFYSCLESLVNGGAERSDGQWEGCRAAAGAPVPYPDPLEPRPG | – | IGF-1R agonist activity
